{"source": "patent US5849585", "target": "receptors for heregulin on rat Schwann cell lines (ESC and ASC)", "data": [{"substance": "recombinant human heregulin-β1 177-244 fragment (from UniProt Q02297) (ligand)", "values": [{"measurement": "half-maximal response, growth of rat ESC and ASC Schwann cell lines", "value": "1 to 2", "unit": "nM"}]}]}
